The text below walks through data of FireProtDB (doi:10.1006/jmbi.1995.0174).

For the series the following is noted: Bos taurus, Fluorescence, whole UniProt chain shown; for denaturant m value / denaturant midpoint (higher = more stable) / unfolding free energy: 25 °C, GdnHCl, CaCl2 20 mM.
[1] abbreviates: pH 5.8, MES 30 mM, reversible: yes.
The mark [2] stands for this setting: pH 4.2, Thermal, acetate 30 mM, reversible: yes.
The mark [3] stands for this setting: pH 7.5, Tris-HCl 0.1 M, reversible: no.
[4] abbreviates: pH 8.3, Tris-HCl 0.1 M, reversible: no.

“And” between values parts separate entries of the source, which are not always exact repeats. Equal values may be shown once.

B1: Anionic trypsin wild type, Q29463 (protein)
chain: MHPLLILAFVGAAVAFPSDDDDKIVGGYTCAENSVPYQVSLNAGYHFCGGSLINDQWVVSAAHCYQYHIQVRLGEYNIDVLEGGEQFIDASKIIRHPKYSSWTLDNDILLIKLSTPAVINARVSTLLLPSACASAGTECLISGWGNTLSSGVNYPDLLQCLVAPLLSHADCEASYPGQITNNMICAGFLEGGKDSCQGDSGGPVACNGQLQGIVSWGYGCAQKGKPGVYTKVCNYVDWIQETIAANS
B1: under setting [1], the denaturant m value was 5.74 kcal/mol/M, the “denaturant midpoint (higher = more stable)” value (shortened to “denaturant midpoint”) amounted to 2.19 M and the unfolding free energy is 12.5 kcal/mol.

B2: Serine protease 1 wild type, P00760 (protein)
chain: MKTFIFLALLGAAVAFPVDDDDKIVGGYTCGANTVPYQVSLNSGYHFCGGSLINSQWVVSAAHCYKSGIQVRLGEDNINVVEGNEQFISASKSIVHPSYNSNTLNNDIMLIKLKSAASLNSRVASISLPTSCASAGTQCLISGWGNTKSSGTSYPDVLKCLKAPILSDSSCKSAYPGQITSNMFCAGYLEGGKDSCQGDSGGPVVCSGKLQGIVSWGSGCAQKNKPGVYTKVCNYVSWIKQTIASN
Turning to B2, under setting [2], the Tm was 66 °C and 65 °C; the “heat capacity change of unfolding” value is 3.09 kcal/mol/K and 2.64 kcal/mol/K; the “unfolding enthalpy (van 't Hoff)” value is 150 kcal/mol and 164 kcal/mol. Further, under setting [3], the denaturant m value was 4.22 kcal/mol/M, the “denaturant midpoint” value was 2.5 M and the unfolding free energy was found to be 10.6 kcal/mol. Under setting [4], the denaturant m value was found to be 4.1 kcal/mol/M, the “denaturant midpoint” value was 2.27 M and the unfolding free energy was determined as 9.3 kcal/mol.
